Reference: patent publication US20240327530A1 (ICHNOS SCIENCES, published 2024)

Tests used:
gg-hs-hs IL-1RAP = molecular target: T1, gg-hs-hs IL-1RAP; test: SPR, IgG1 LALA captured on anti-human IgG Fc CM5 chip, chimera injected at 50 nM
T1 construct: chicken/human IL-1RAP chimera; also called IL-1RAP-ECD(ggD1(S139-P246)-hsD2(V132-V233)-hsD3(V234-E359))-Avi-His; gg-hs-hs-IL-1RAP-ECD-avi-his
T1 single chain: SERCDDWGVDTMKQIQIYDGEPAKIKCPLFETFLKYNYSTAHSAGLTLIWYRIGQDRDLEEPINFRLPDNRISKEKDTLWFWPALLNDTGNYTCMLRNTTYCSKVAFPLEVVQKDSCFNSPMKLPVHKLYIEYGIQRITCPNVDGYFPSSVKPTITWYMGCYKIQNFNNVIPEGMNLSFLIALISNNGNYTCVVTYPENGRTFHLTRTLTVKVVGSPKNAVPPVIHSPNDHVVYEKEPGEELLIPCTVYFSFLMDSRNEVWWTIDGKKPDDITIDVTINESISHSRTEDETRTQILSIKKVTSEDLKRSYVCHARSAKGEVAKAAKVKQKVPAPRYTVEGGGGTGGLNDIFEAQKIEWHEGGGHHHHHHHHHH
Method: Human-chicken IL-1RAP chimeras were injected over immobilized anti-IL-1RAP IgG1 LALA at 50 nM in HBS-EP+ buffer followed by a dissociation in HBS-EP+ buffer. “hs” stands for a human domain and “gg” stands for a chicken domain. Human-chicken chimeras are then described by their respective human or chicken domains in successive order, e.g. hs-gg-gg IL-1RAP stands for IL-1RAP with human domain 1, chicken domain 2 and chicken domain 3. Plots show data expressed as number of resonance units (abbreviated RU; Y axis) vs. time (X axis).
Domain of IL-1RAP targeted by IgG1 LALA clones was identified by SPR binding assay. Around 150 RU of IgG1 LALA was immobilized on the fc2 of a Series S CM5 sensor chip previously coated with anti-human IgG Fc (BIACORE™, GE […]®, catalog no. BR100839) using a commercial amine coupling kit (BIACORE™, GE […]®, catalog no. BR100050). Human IL-1RAP-avi-his, chicken IL-1RAP-avi-his, chimeric protein comprising chicken domain 1 of IL-RAP fused to human domain 2 and 3 of IL-1RAP (gg-hs-hs-IL-1RAP-ECD-avi-his) and chimeric protein comprising chicken domain 1 and 2 of IL-1RAP fused to human domain 3 of IL-1RAP (gg-gg-hs-IL-1RAP-avi-his) were injected individually at 50 nM in HBS-EP+ for 3 min over fc1 and fc2 (fc1 being used as reference), followed by dissociation in HBS-EP+ buffer for 5 min. […]

[1] = molecular target: T2, Recombinant cynomolgus monkey IL-1RAP-ECD(S21-E359)-avi-his protein (cynomolgus monkey, UniProt P59822 21-359 (rhesus entry)); test: SPR, Fab as analyte
T2 construct: also called cyno IL-1RAP-ECD-Avi-His; recombinant cynomolgus monkey IL-1RAP-avi-his protein
T2 sequence: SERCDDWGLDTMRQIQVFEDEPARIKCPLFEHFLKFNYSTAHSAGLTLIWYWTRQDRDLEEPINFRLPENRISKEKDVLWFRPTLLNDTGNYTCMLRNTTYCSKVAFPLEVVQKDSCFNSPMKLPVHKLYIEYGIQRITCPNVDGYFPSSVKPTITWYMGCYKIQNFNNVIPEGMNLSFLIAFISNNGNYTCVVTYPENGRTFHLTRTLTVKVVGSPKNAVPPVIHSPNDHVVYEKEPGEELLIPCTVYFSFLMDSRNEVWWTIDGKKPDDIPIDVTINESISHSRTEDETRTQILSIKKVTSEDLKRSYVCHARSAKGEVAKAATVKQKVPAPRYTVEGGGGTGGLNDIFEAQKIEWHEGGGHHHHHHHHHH
Method: (§1) Surface plasmon resonance (SPR) was used to measure the binding affinities of the Fab fragments for human, cynomolgus monkey and/or mouse IL-1RAP. Affinities were measured on a BIACORE™ T200 instrument (BIACORE™, GE […]®) at 25° C. and analyzed with the BIACORE™ T200 Evaluation Software (v3.1). Measurements were performed on Series S CM5 sensor chips (BIACORE™ T200, BIACORE™, GE […]®, catalog no. BR100530) coupled with anti-human IgG Fc (BIACORE™, GE […]®, catalog no. BR100839) using a commercial amine coupling kit (BIACORE™, GE […]®, catalog no. BR100050) or on Series S BiotinCAPture chips (BIACORE™, GE […]®, catalog no. 28920234). SPR measurements were performed with commercially available recombinant human IL-1RAP Fc fusion protein (Acrobiosystems, catalog no. ILP-H5256) and recombinant mouse IL-1RAP Fc fusion protein (Sino Biologicals, catalog no. 52657-M02H) or with biotinylated recombinant cynomolgus monkey IL-1RAP-avi-his protein produced in-house (SEQ ID NO. 2).
(§2) The affinities to human, cynomolgus monkey and mouse IL-1RAP were assessed by immobilizing IL-1RAP and using Fab fragments as analyte. […] Dissociation was monitored for 5 min. […]

[2] = molecular target: T3, Recombinant mouse IL-1RAP Fc fusion protein (Sino Biologicals, catalog no. 52657-M02H) (mouse, UniProt Q61730 21-350); test: SPR, mouse IL-1RAP-Fc captured, Fab as analyte, 1:1 fit
T3 construct: Bought; not shown: Fc part of the bought fusion protein
T3 sequence: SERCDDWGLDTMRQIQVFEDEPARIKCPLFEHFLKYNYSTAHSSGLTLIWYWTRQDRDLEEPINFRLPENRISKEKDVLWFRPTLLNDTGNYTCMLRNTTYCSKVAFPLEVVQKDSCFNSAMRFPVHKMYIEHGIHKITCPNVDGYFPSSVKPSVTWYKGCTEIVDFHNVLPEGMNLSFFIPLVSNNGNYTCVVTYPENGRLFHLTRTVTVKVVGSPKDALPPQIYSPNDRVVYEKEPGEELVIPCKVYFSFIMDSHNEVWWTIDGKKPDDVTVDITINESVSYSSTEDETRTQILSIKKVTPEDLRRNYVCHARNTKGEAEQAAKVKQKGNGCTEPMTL
Method: as §1, §2

[3] = molecular target: T2, Recombinant cynomolgus monkey …; test: SPR, biotinylated cyno IL-1RAP-avi-his captured, Fab as analyte, 1:1 fit
Method: as §1
(§3) The affinities to human, cynomolgus monkey and mouse IL-1RAP were assessed by immobilizing IL-1RAP and using Fab fragments as analyte. Around 100 RU of human or mouse IL-1RAP Fc fusion protein were captured on fc2 of a Series S CM5 sensor chip coupled with anti-human IgG Fc and around 150 RU of biotinylated cynomolgus monkey IL-1RAP protein were captured on fc2 of a Series S BiotinCAPture chip. Fab fragments were injected in single cycle kinetic at different concentrations ranging from 7.8 to 500 nM, in HBS-EP+ buffer (BIACORE™, GE […]®, catalog no. BR100669) at a flow rate of 30 μl/min for 3 min on fc1 and fc2 (fc1 being used as reference). Dissociation was monitored for 5 min. After each cycle, the surface was regenerated with 60 μl of regeneration solution provided with anti-human IgG Fc capture kit (BIACORE™, GE […]®, catalog no. BR100839) or BiotinCAPture kit (BIACORE™, GE […]®, catalog no. 28920234) respectively. Experimental data were processed using the 1:1 Langmuir kinetic fitting model. Measurements included zero-concentration samples for referencing. Chi², U- and residual values were used to evaluate the quality of a fit between the experimental data and individual binding models.

[4] = molecular target: T4, Recombinant human IL-1RAP Fc fusion protein (Acrobiosystems, catalog no. ILP-H5256) (human, UniProt Q9NPH3 21-359, limits assumed); test: SPR, human IL-1RAP-Fc captured, Fab as analyte, 1:1 fit
T4 construct: Bought; not shown: Fc part of the bought fusion protein
T4 sequence: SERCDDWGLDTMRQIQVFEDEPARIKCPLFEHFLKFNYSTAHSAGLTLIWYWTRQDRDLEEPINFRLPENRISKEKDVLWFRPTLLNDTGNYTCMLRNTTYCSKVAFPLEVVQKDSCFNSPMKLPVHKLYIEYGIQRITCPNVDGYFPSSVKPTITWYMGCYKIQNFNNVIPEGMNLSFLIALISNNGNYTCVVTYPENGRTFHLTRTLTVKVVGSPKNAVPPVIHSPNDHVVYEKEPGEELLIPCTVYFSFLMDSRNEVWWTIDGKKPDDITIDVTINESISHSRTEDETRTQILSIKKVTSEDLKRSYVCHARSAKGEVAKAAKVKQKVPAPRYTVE
Method: as §1, §3

[5] = molecular target: T2, Recombinant cynomolgus monkey …; test: SPR, biotinylated cyno IL-1RAP-avi-his captured, Fab as analyte
Method: as §1, §2

[6] = molecular target: T3, Recombinant mouse IL-1RAP Fc fusion …; test: SPR, mouse IL-1RAP-Fc captured, Fab as analyte
Method: as §1, §3

| Binder | binding result (gg-hs-hs IL-1RAP) | Kd [2] [nM] | Kd [4] [nM] | binding result [5] | other results |
| --- | --- | --- | --- | --- | --- |
| anti-IL-1RAP-C8 IgG1 LALA (antibody, V domains shown, Human IgG1 with L234A/L235A (EU)) VH: QVQLVQSGAEVKKPGSSVKVSCKASGGQFSEYAIQWVRQAPGQGLEWMGYIIPLHGQVDYAQKFQGRVTITADESTSTAYMELSSLRSEDTAVYYCARGQTLYDSGRQFDIWGQGTLVTVSS VL: not shown | binds |  |  |  |  |
| anti-IL-1RAP-C3 IgG1 LALA (antibody, V domains shown, Human IgG1 with L234A/L235A (EU)) VH: EVQLLESGGGLVQPGGSLRLSCAASGFTFRDYAMGWVRQAPGKGLEWVSAISYDGEGTLYADSVKGRFTISRDNSKNTLYLQMNSLRAEDTAVYYCARFRYYTAFDYWGQGTLVTVSS VL: not shown | binds |  |  |  |  |
| Anti-IL-1RAP-UCP02-C3-Fab (Fab, V domains shown, also called anti-IL-1RAP-C3; anti-IL-1RAP-C3 Fab) VH: EVQLLESGGGLVQPGGSLRLSCAASGFTFRDYAMGWVRQAPGKGLEWVSAISYDGEGTLYADSVKGRFTISRDNSKNTLYLQMNSLRAEDTAVYYCARFRYYTAFDYWGQGTLVTVSS VL: not shown |  | 0.63 | 2.8 |  | fold lower affinity than to human IL-1RAP [1]: ~40 fold; Kd [3]: 110 nM |
| Anti-IL-1RAP-UCP04-C1-Fab (Fab, V domains shown) VH: EVQLLESGGGLVQPGGSLRLSCAASGFTFSAYTMSWVRQAPGKGLEWVSAISYEGDGTLYADSVKGRFTISRDNSKNTLYLQMNSLRAEDTAVYYCARSLYWSGFDYWGQGTLVTVSS VL: not shown |  | 3.54 | 16 | no binding (tested: 7.8 to 500 nM Fab) |  |
| Anti-IL-1RAP-UCP02-B5-Fab (Fab, V domains shown) VH: QVQLVQSGAEVKKPGSSVKVSCKASGGYFSAYIISWVRQAPGQGLEWMGGIVPQYGYATYAQKFQGRVTITADESTSTAYMELSSLRSEDTAVYYCARGRSTTYYGFAYWGQGTLVTVSS VL: not shown |  |  | 311 | no binding (tested: 7.8 to 500 nM Fab) | binding result [6]: no binding (tested: 7.8 to 500 nM Fab) |
